T1: GAL4 activation domain fusion (ACT) to HAB1 (UniProt Q9CAJ0 23-511, limits assumed)
T1 construct: pACT-HAB1 fusion in yeast reporter strains; also called pACT-HAB1
T1 sequence (looked up): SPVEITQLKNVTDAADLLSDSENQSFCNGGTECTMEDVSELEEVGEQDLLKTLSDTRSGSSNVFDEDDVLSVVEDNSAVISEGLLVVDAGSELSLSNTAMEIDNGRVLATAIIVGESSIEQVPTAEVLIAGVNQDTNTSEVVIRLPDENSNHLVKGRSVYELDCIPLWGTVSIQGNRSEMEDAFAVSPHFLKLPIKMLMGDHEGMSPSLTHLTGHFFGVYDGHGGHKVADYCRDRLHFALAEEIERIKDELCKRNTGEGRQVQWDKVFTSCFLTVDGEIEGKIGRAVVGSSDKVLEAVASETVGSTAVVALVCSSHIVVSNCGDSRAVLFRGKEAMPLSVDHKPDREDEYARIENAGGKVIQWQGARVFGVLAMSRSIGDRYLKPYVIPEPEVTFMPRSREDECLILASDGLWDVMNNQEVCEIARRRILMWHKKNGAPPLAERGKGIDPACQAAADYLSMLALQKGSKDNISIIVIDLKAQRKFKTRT

B1: PYR1^K59R,F108A,S122G,L87A (receptor)
chain: MPSELTPEERSELKNSIAEFHTYQLDPGSCSSLHAQRIHAPPELVWSIVRRFDKPQTYRHFIKSCSVEQNFEMRVGCTRDVIVISGAPANTSTERLDILDDERRVTGASIIGGEHRLTNYKGVTTVHRFEKENRIWTVVLESYVVDMPEGNSEDDTRMFADTVVKLNLQKLATVAEAMARNSGDGSGSQVT
notes: pBD-PYR1 fusion in yeast
B2: PYR1^K59R,F108C (receptor, not shown: small tags and cut ends)
chain: MPSELTPEERSELKNSIAEFHTYQLDPGSCSSLHAQRIHAPPELVWSIVRRFDKPQTYRHFIKSCSVEQNFEMRVGCTRDVIVISGLPANTSTERLDILDDERRVTGCSIIGGEHRLTNYKSVTTVHRFEKENRIWTVVLESYVVDMPEGNSEDDTRMFADTVVKLNLQKLATVAEAMARNSGDGSGSQVT
notes: pBD-PYR1 fusion in yeast
B3: PYR1^K59R,F108A,S122G,V164I (receptor)
chain: MPSELTPEERSELKNSIAEFHTYQLDPGSCSSLHAQRIHAPPELVWSIVRRFDKPQTYRHFIKSCSVEQNFEMRVGCTRDVIVISGLPANTSTERLDILDDERRVTGASIIGGEHRLTNYKGVTTVHRFEKENRIWTVVLESYVVDMPEGNSEDDTRMFADTVIKLNLQKLATVAEAMARNSGDGSGSQVT
notes: pBD-PYR1 fusion in yeast
B4: PYR1^K59R,F108A,S122G,V81I (receptor, not shown: small tags and cut ends)
chain: MPSELTPEERSELKNSIAEFHTYQLDPGSCSSLHAQRIHAPPELVWSIVRRFDKPQTYRHFIKSCSVEQNFEMRVGCTRDIIVISGLPANTSTERLDILDDERRVTGASIIGGEHRLTNYKGVTTVHRFEKENRIWTVVLESYVVDMPEGNSEDDTRMFADTVVKLNLQKLATVAEAMARNSGDGSGSQVT
notes: pBD-PYR1 fusion in yeast
B5: PYR1^K59R,F108G (receptor, not shown: small tags and cut ends)
chain: MPSELTPEERSELKNSIAEFHTYQLDPGSCSSLHAQRIHAPPELVWSIVRRFDKPQTYRHFIKSCSVEQNFEMRVGCTRDVIVISGLPANTSTERLDILDDERRVTGGSIIGGEHRLTNYKSVTTVHRFEKENRIWTVVLESYVVDMPEGNSEDDTRMFADTVVKLNLQKLATVAEAMARNSGDGSGSQVT
notes: pBD-PYR1 fusion in yeast
B6: PYR1^K59R,F108A,S122G,V81C (receptor, not shown: small tags and cut ends)
chain: MPSELTPEERSELKNSIAEFHTYQLDPGSCSSLHAQRIHAPPELVWSIVRRFDKPQTYRHFIKSCSVEQNFEMRVGCTRDCIVISGLPANTSTERLDILDDERRVTGASIIGGEHRLTNYKGVTTVHRFEKENRIWTVVLESYVVDMPEGNSEDDTRMFADTVVKLNLQKLATVAEAMARNSGDGSGSQVT
notes: pBD-PYR1 fusion in yeast
B7: PYR1^K59R,F108I (receptor, not shown: small tags and cut ends)
chain: MPSELTPEERSELKNSIAEFHTYQLDPGSCSSLHAQRIHAPPELVWSIVRRFDKPQTYRHFIKSCSVEQNFEMRVGCTRDVIVISGLPANTSTERLDILDDERRVTGISIIGGEHRLTNYKSVTTVHRFEKENRIWTVVLESYVVDMPEGNSEDDTRMFADTVVKLNLQKLATVAEAMARNSGDGSGSQVT
notes: pBD-PYR1 fusion in yeast
B8: PYR1^K59R,F108A,S122G,V83L (receptor)
chain: MPSELTPEERSELKNSIAEFHTYQLDPGSCSSLHAQRIHAPPELVWSIVRRFDKPQTYRHFIKSCSVEQNFEMRVGCTRDVILISGLPANTSTERLDILDDERRVTGASIIGGEHRLTNYKGVTTVHRFEKENRIWTVVLESYVVDMPEGNSEDDTRMFADTVVKLNLQKLATVAEAMARNSGDGSGSQVT
notes: pBD-PYR1 fusion in yeast
B9: PYR1^K59R,F108A,S122G,V81T (receptor, not shown: small tags and cut ends)
chain: MPSELTPEERSELKNSIAEFHTYQLDPGSCSSLHAQRIHAPPELVWSIVRRFDKPQTYRHFIKSCSVEQNFEMRVGCTRDTIVISGLPANTSTERLDILDDERRVTGASIIGGEHRLTNYKGVTTVHRFEKENRIWTVVLESYVVDMPEGNSEDDTRMFADTVVKLNLQKLATVAEAMARNSGDGSGSQVT
notes: pBD-PYR1 fusion in yeast

The target in this assay is T1, GAL4 activation domain fusion (ACT) to …. Description: yeast two-hybrid, X-gal; lowest mandipropamid concentration giving signal.
B1: the Threshold worked out at 0.25 µM.
With B2, the Threshold is 100 µM.
The figure for B3 is 0.25 µM; for B4 it is 0.25 µM; for B5 it is 100 µM.
To B6 belongs 0.25 µM; to B7, 100 µM.
The molecule B8 showed a Threshold of 0.05 µM.
The molecule B9 yielded a Threshold of 0.25 µM.

Values taken from patent US20160115500A1 (University of California, published 2016).
